The source of these data is PMC9481538, “The interaction between LC8 and LCA5 reveals a novel oligomerization function of LC8 in the ciliary-centrosome system” (Scientific Reports, 2022).

Substitutions are numbered along the chain they refer to. Where no end group is shown, it is not given here. The star is where a group is joined. FITC = O=C1OC2(c3ccc(O)cc3Oc3cc(O)ccc32)c2ccc(NC(=S)*)cc21

Data set [1] deals with T1, Dynein light chain LC8 (DYNLL2), 6xHis-tagged (UniProt Q96FJ2 1-89).
T1 construct: Dynein light chain LC8 (DYNLL2), an 89-residue protein; pEV vector with N-terminal 6xHis-tag; The calculated dimer mass of 20.7 kDa fits the untagged protein, so the His tag may have been removed; source: E. coli BL21 (DE3) Rosetta, purified (Ni IMAC, anion exchange on HiTrap Q-HP, SEC on Superdex 75)
Description: fluorescence polarisation; competitive: 50 nM FITC-BMF peptide with LC8 at 80% saturation (12 μM), titrated with LCA5 peptide from 500 μM in two-fold dilutions; 25 °C, PBS, 2 mM TCEP, 0.05% Brij; triplicates. Particulars: both partners purified.

Data set [2] has as its target T1, Dynein light chain LC8 (DYNLL2), …. Description: ITC; MBP-fused LCA5 construct in the cell, LC8 injected, 37 injections of 1 μl; 37 °C, PBS pH 7.4, 1 mM TCEP. Particulars: both partners purified. Background: In ITC the heat of successive injections is recorded.
Data set [3] concerns the molecule itself. The experiment in a line: SEC; Superose 6 Increase 10/300, DPBS with 200 μM TCEP; LC8 or sLCA5-WT alone; masses estimated from a calibration curve.

T1 sequence (Q96FJ2 whole entry, looked up): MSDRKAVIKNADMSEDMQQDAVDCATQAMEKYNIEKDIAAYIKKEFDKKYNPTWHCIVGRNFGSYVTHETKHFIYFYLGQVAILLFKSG

B1: FITC-labelled BMF (Bcl-2-modifying factor) peptide (TSQEDKATQTL) (peptide)
peptide: {FITC}-TSQEDKATQTL
notes: also called BMF peptide; fluorescein labeled BMF peptide
For the molecule B1, in data set [1], the binding result is listed as “binds”.

B2: sLCA5-ΔVQT (domain or fragment, human (cDNA library from HEK293), UniProt Q86VQ0 96-430, looked up)
chain: DTDLVTKRILSARLLKINELQNEVSELQVKLAELLKENKSLKRLQYRQEKALNKFEDAENEISQLIFRHNNEITALKERLRKSQEKERATEKRVKDTESELFRTKFSLQKLKEISEARHLPERDDLAKKLVSAELKLDDTERRIKELSKNLELSTNSFQRQLLAERKRAYEAHDENKVLQKEVQRLYHKLKEKERELDIKNIYSNRLPKSSPNKEKELALRKNAACQSDFADLCTKGAAAMEDFKPEEYPLTPETIMCYENKWEEPGHLTLDLQSQKQDRHGEAGILNPIMEREEKFVTDEELHVVKQEVEKLEDEWEREELDKKQKEKASLLER
notes: position 333 worked out from the printed motif limits; Made by quick-change mutagenesis from sLCA5-WT; also called ΔVQT mutant; source: E. coli BL21 (DE3) Rosetta, purified (amylose resin, IMAC); clarified lysate for the pull-down; not shown: MBP, N-terminal, kept; His6, C-terminal, kept
Regarding B2, in data set [2], the Kd was 1220 ± 80 nM.

B3: sLCA5-WT (LCA5 96-430 with N-terminal MBP and C-terminal 6xHis) (domain or fragment, human (cDNA library from HEK293), UniProt Q86VQ0 96-430, looked up)
chain: B2 chain with A238V, A239Q, A240T
notes: Monomer of the construct 84 kDa; also called wild-type LCA5 fragment; source: E. coli BL21 (DE3) Rosetta, purified (amylose resin, IMAC); clarified lysate for the pull-down; not shown: MBP, N-terminal, kept; His6, C-terminal, kept
As to B3, the “stoichiometry N” value in data set [3] is around 4. For the same molecule, the Kd in data set [2] was 760 ± 60 nM.

B4: sLCA5-ΔCQS (domain or fragment, human (cDNA library from HEK293), UniProt Q86VQ0 96-430, looked up)
chain: B2 chain with C226A, Q227A, S228A, A238V, A239Q, A240T
notes: position 321 worked out from the printed motif limits; Made by quick-change mutagenesis from sLCA5-WT; also called ΔCQS mutant; source: E. coli BL21 (DE3) Rosetta, purified (amylose resin, IMAC); clarified lysate for the pull-down; not shown: MBP, N-terminal, kept; His6, C-terminal, kept
B4 had a Kd in data set [2] of 680 ± 80 nM.

One may read the Kd as a measure of binding affinity in units of concentration. The term stoichiometry N denotes the number of molecules, sites or subunits per partner or assembly.
